According to patent publication US20090226525:

Assays:
Assay in all cases: EMSA
[1] = target: HBV core protein K9 mutant (truncated core, C-terminal 9-lysine tail, E77C) (Hepatitis B virus) (UniProt P03149); details: phosphate (P) at end of the sequence; 20 mM Tris pH 7.7 (p269 states 10 mM Tris), room temperature, agarose gel
[2] = target: HBV core protein K7 mutant (truncated core, C-terminal 7-lysine tail, E77C) (Hepatitis B virus) (UniProt P03149); details: phosphate (P) at end of the sequence; 20 mM NaHCO3 pH 9.5, room temperature, agarose gel
[3] = target: HBV core protein K11 mutant (truncated core, C-terminal 11-lysine tail, E77C) (Hepatitis B virus) (UniProt P03149); details: phosphate (P) at end of the sequence; 20 mM NaHCO3 pH 9.5, room temperature, agarose gel

“GGAAAGACUGUUCCAAAAAUUUUCCUUUCUGACAAGGUUUUU / AAAAACCUUGUCAGAAAGGAAAAUUUUUGGAACAGUCUUUCC [siGLO Cyclophilin B siRNA]” was tested, and the Kd [1] was 115 nM, the Kd [2] was 370 nM and the Kd [3] was 69 nM.
